The target of experiment [1] is T1, human GABRA2 (SEQ ID NO: 21) (human, UniProt P47869 29-251).
T1 construct: The Biacore method says only 'Diluted GABRA2'; I took it to be the same antigen; also called GABRA2 protein; human GABRA2 antigen
T1 sequence: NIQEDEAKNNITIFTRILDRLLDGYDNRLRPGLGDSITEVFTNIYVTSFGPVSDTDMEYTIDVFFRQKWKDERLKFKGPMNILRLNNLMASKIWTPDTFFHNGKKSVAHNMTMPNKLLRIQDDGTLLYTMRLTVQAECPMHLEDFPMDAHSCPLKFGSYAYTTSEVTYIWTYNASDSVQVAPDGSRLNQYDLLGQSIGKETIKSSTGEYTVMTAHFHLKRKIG
The experiment in a line: Biacore SPR, antibody immobilized on CM5 chip, GABRA2 as analyte, single-cycle kinetics. The procedure:
(§1) Biacore analysis—Antibody was immobilized onto a CM5 sensor chip (Cat No. BR-1005-30) under 25° C. while HBS-EP was used as the running buffer. The sensor chip surface of flow cells 1 and 2 were activated by freshly mixed 50 mmol/1 N-Hydroxysuccinimide (NHS) and 200 mmol/I 1-ethyl-3-(3-dimethylaminopropyl) carbodiimide hydrochloride (EDC) for 200s ([…]). Afterwards, the antibody diluted in 10 mml/l NaAC (pH 4.5) was injected into flow cell 2 to achieve conjugation of 300 Response Unit respectively, while flow cell 1 was set as blank. After the amine coupling reaction, the remaining active coupling sites on chip surface were blocked with 200s injection of 1 mol/l ethanolamine hydrochloride. […] Diluted GABRA2 was injected over the surface as association phase, followed by injecting running buffer as dissociation phase. Data was processed using the Biacore 8K Evaluation software version 1.1. Flow cell 1 and blank injection of buffer in each cycle were used as double reference for Response Unit subtraction.
(In general: SPR reads the build-up and loss of mass on a sensor chip optically.)

Experiment [2] deals with T1, human GABRA2 (SEQ ID NO: 21). The experiment in a line: Biacore SPR, antibody immobilized on CM5 chip, GABRA2 as analyte, single-dose kinetics. The procedure: as §1

B1: antibody U6882DH130_13, purified from hybridoma 10C5B9 (antibody, V domains shown)
VH: EVQLQQSGAELVKPGASVKLSCTASGFNIKDTYMYWVKQRPEQGLEWIGRIDPANGNTKYDPKFQGKATITADTSSNTAYLQLSSLTSEDTAVYYCASNYYGSFDYWGQGTTLTVSS
VL: DIQMTQTTSSLSASLGDRVTISCRASQDISNYLNWYQQKPDGTVKLLIYYTSRLHSGVPSRFSGSGSGTDYSLTISNLEQEDIATYFCQQGNTLPPTFGGGTKLEIK
notes: also called U6882DH130_13 Antibody; Antibody from clone10C5B9
In experiment [1], B1 displayed a Kd of 0.388 nM, a koff of 5.42e-05 s⁻¹ and a kon of 140000 M⁻¹ s⁻¹. In experiment [2], this molecule had a Kd of 0.251 nM, a koff of 1.58e-05 s⁻¹ and an association rate constant (kon) of 62800 M⁻¹ s⁻¹.

Usually Kd stands for the equilibrium constant for the complex coming apart. Read a high Kd as weaker binding. Broadly, the koff is the first-order rate constant of dissociation. Low values mean a long-lived complex, high ones a short-lived complex. In general, kon refers to the rate constant with which the complex forms. Low readings indicate slower complex formation, high ones faster complex formation.

Values taken from patent US20210163591A1 (TEL HASHOMER MEDICAL RESEARCH INFRASTRUCTURE AND SERVICES, published 2021).
